Measurements taken from patent US20200055935A1 (published 2020).

Legend:
[1] = biological target: T1, human TIM-3 coupled to Fc (human, UniProt Q8TDQ0 22-200); assay: SPR; culture supernatant
[2] = biological target: T1, human TIM-3 coupled to Fc; assay: SPR; crude periplasmic extract

Binder	koff [1]	koff [2]
anti-TIM-3 antibody clone 1B9 (antibody, V domains shown) VH: QVQLQQWGAGLLKPSETLSLTCAVYGGSFSGYYWSWIRQPPGKGLEWIGEINHSGSTNYNPSLKSRVTISVDTSKNQFSLKLSSVTAADTAVYYCARGYVAGSDAWGQGTLVTVSS VL: QSVLTQPPSVSAAPGQKVTISCSGSSSNIGNNYVSWYQQLPGTAPKLLIYGNNWRPSGIPDRFSGSKSGTSATLGITGLQTGDEADYYCEAWDYYVAAGYFGGGTKLTVL	4.3e-05 s⁻¹	2.8e-05 s⁻¹
anti-TIM-3 antibody clone 1D9 (antibody, V domains shown) VH: QVQLQQWGAGLLKPSETLSLTCAVYGGSFSGYYWSWIRQPPGKGLEWIGEINHSGSTNYNPSLKSRVTISVDTSKNQFSLKLSSVTAADTAVYYCARGYYAGDDYWGQGTLVTVSS VL: QSVLTQPPSVSAAPGQKVTISCSGSSSNIGNNYVSWYQQLPGTAPKLLIYGNNWRPSGIPDRFSGSKSGTSATLGITGLQTGDEADYYCEAWDSAYAAGSFGGGTKLTVL	0.00018 s⁻¹	0.00018 s⁻¹
anti-TIM-3 antibody clone 1H9 (antibody, V domains shown) VH: QVQLQQWGAGLLKPSETLSLTCAVYGGSFSGYYWSWIRQPPGKGLEWIGEINHSGSTNYNPSLKSRVTISVDTSKNQFSLKLSSVTAADTAVYYCARGYVAGFDDWGQGTLVTVSS VL: QSVLTQPPSVSAAPGQKVTISCSGSSSNIGNNYVSWYQQLPGTAPKLLIYGNNWRPSGIPDRFSGSKSGTSATLGITGLQTGDEADYYCDSWDSADASGVFGGGTKLTVL	0.00016 s⁻¹	7e-05 s⁻¹
anti-TIM-3 antibody clone 1F4 (antibody, V domains shown) VH: QVQLQQWGAGLLKPSETLSLTCAVYGGSFSGYYWSWIRQPPGKGLEWIGEINHSGSTNYNPSLKSRVTISVDTSKNQFSLKLSSVTAADTAVYYCARGYVAGYDYWGQGTLVTVSS VL: QSVLTQPPSVSAAPGQKVTISCSGSSSNIGNNYVSWYQQLPGTAPKLLIYGNNWRPSGIPDRFSGSKSGTSATLGITGLQTGDEADYYCDSWDAALSAGVFGGGTKLTVL	0.0003 s⁻¹	0.00029 s⁻¹
anti-TIM-3 antibody clone 1H10 (antibody, V domains shown) VH: QVQLQQWGAGLLKPSETLSLTCAVYGGSFSGYYWSWIRQPPGKGLEWIGEINHSGSTNYNPSLKSRVTISVDTSKNQFSLKLSSVTAADTAVYYCARGYVAGFDSWGQGTLVTVSS VL: QSVLTQPPSVSAAPGQKVTISCSGSSSNIGNNYVSWYQQLPGTAPKLLIYGNNWRPSGIPDRFSGSKSGTSATLGITGLQTGDEADYYCDSWDYDYAAGVFGGGTKLTVL	2.9e-05 s⁻¹	2.3e-05 s⁻¹

Continued, values first:

koff [1]	koff [2]	Binder
0.00013 s⁻¹	0.00022 s⁻¹	anti-TIM-3 antibody clone 2G6 (antibody, V domains shown) VH: QVQLQQWGAGLLKPSETLSLTCAVYGGSFSGYYWSWIRQPPGKGLEWIGEINHSGSTNYNPSLKSRVTISVDTSKNQFSLKLSSVTAADTAVYYCARGYVAGFDSWGQGTLVTVSS VL: QSVLTQPPSVSAAPGQKVTISCSGSSSNIGNNYVSWYQQLPGTAPKLLIYGNNWRPSGIPDRFSGSKSGTSATLGITGLQTGDEADYYCDSWDSSDSSGVFGGGTKLTVL
8.7e-05 s⁻¹	0.00014 s⁻¹	anti-TIM-3 antibody clone 2F4 (antibody, V domains shown) VH: QVQLQQWGAGLLKPSETLSLTCAVYGGSFSGYYWSWIRQPPGKGLEWIGEINHSGSTNYNPSLKSRVTISVDTSKNQFSLKLSSVTAADTAVYYCARGYVAGSDAWGQGTLVTVSS VL: QSVLTQPPSVSAAPGQKVTISCSGSSSNIGNNYVSWYQQLPGTAPKLLIYGNNWRPSGIPDRFSGSKSGTSATLGITGLQTGDEADYYCESWDYDYASGVFGGGTKLTVL
0.00021 s⁻¹	0.00019 s⁻¹	anti-TIM-3 antibody clone 2C7 (antibody, V domains shown) VH: QVQLQQWGAGLLKPSETLSLTCAVYGGSFSGYYWSWIRQPPGKGLEWIGEINHSGSTNYNPSLKSRVTISVDTSKNQFSLKLSSVTAADTAVYYCARGYVAGYDYWGQGTLVTVSS VL: QSVLTQPPSVSAAPGQKVTISCSGSSSNIGNNYVSWYQQLPGTAPKLLIYGNNWRPSGIPDRFSGSKSGTSATLGITGLQTGDEADYYCDSWDSYLAAGVFGGGTKLTVL
